Assay results reported in the supplement of paper PMC10065799, “High-throughput profiling of sequence recognition by tyrosine kinases and SH2 domains using bacterial peptide display” (eLife, 2023).

The sequences below were run against EPHB2 (UniProt P29323) (assay: phosphorylation enrichment, bacterial display (enrichment ratio); higher = better substrate or ligand; peptides without Tyr show the background).
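Further: 11-residue human phosphosite peptides and single-mutation variants displayed on the E. coli surface, counted by deep sequencing, each peptide's frequency after selection divided by its frequency in the unselected input library; frequency after pTyr selection over input frequency; kinase dosed for 20-30% of maximal phosphorylation in three min.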

EPHB2, sequence (P29323 whole entry, looked up): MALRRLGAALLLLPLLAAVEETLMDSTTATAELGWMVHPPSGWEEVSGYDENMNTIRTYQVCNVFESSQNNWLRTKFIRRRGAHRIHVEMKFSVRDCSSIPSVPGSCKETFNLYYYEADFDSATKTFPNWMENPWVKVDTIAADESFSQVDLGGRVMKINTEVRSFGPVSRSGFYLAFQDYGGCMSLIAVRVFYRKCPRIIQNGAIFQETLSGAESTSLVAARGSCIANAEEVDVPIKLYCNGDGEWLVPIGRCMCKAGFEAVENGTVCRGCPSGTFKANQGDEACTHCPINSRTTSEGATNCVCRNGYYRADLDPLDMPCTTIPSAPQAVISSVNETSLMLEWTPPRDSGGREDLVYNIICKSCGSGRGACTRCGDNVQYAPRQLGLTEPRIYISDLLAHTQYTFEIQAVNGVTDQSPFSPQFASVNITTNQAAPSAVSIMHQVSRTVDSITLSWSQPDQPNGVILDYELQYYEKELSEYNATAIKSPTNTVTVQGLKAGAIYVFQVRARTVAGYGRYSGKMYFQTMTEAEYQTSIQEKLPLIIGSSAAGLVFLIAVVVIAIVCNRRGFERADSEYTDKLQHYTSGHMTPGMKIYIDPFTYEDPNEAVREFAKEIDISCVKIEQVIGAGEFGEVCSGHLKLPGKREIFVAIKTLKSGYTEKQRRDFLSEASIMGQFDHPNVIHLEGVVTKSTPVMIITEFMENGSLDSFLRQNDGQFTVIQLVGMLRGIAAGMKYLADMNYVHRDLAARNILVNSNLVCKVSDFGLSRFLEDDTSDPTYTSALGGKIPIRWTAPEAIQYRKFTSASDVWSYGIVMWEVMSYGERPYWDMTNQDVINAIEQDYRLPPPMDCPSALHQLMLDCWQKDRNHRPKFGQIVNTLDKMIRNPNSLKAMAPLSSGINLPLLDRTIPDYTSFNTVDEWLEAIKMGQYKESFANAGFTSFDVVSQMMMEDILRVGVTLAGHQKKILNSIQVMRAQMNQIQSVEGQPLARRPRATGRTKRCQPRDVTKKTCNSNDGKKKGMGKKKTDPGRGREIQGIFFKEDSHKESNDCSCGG

Row | Sequence | phosphorylation enrichment
1 | QTEAPYRFIFM [PTPN11_Y511_Q510P_YF] | 0.626
2 | SFPSYYTSHVQ [NEFL_Y443] | 1.1
3 | CKRQFYLYKGK [RSPO4_Y112] | 0.49
4 | MKGEFYRFLAE [YWHAG_Y131_D129E_YF] | 0.455
5 | QTWKTYVRHQQ [SFI1_Y164_Q167H] | 0.509
6 | KPGVNYYFQVS | 0.602
7 | KNRDVSSSDYF [USP24_Y2134_Y2134S] | 0.447
8 | YSIDYYRVGGH [NTRK2_Y707_T704I] | 0.86
9 | EVVGRYSVHFA [MLH1_Y183_N187Y_YF] | 0.49
10 | DRLPSYLDKVR [KRT12_Y139_A137P] | 0.331
11 | VDTFWYKLLKR [EPM2A_Y86_F88L] | 0.548
12 | PEADKYRLPYA [FGG_Y300_T303P] | 0.715
13 | LAVNPYGPPDP | 0.553
14 | CTLLPYYSARV [DGKE_Y269] | 0.655
15 | FVKEPYIQSRF [HIPK4_Y175_YF] | 0.452
16 | EKKKKYMLPLD [DNM2_Y563_E560K] | 0.469

Row | Sequence | phosphorylation enrichment
17 | SHTPSYCDEWL [RITA1_Y109_S113W] | 0.558
18 | GKPENYRRLDI [VHL_Y175_V170G] | 0.285
19 | NKYVAYIESQG [KDM4B_Y34] | 0.472
20 | VNTMLYEKFTF [TEK_Y1108_T1106M_YF] | 4.34
21 | GFILMYDITNK [RAB3C_Y110_E115K] | 1.14
22 | RHSGSYFVTSV [APC_Y2838_L2839F] | 0.654
23 | FRASFYRKGGC [ALK_Y1283_YF] | 0.527
24 | SLFQFYFQQKG [CHKB_Y381_R377L] | 0.568
25 | LWKWRYEELKE [CCDC102B_Y299_K298R] | 1.09
26 | KPRKPYTIKKP [BRD2_Y715] | 0.765
27 | GEFFRYLAEVA [YWHAG_Y133_D129E_YF] | 0.501
28 | NLMPAYHKCIQ [CYP21A2_Y190_Y191H] | 0.586
29 | GESQGYDIMEP [MSH2_Y863] | 0.555
30 | KFSNQYKATIG [RAB7A_Y37] | 0.311
31 | TDIVAYSGRVQ [SPTBN2_Y477] | 2.04

What follows are sequences tested on c-Abl (mouse) in the same assay as above.

Row | Sequence | phosphorylation enrichment
32 | AKFPSYEKNKK [FOXL2_Y91_F90S] | 0.544
33 | ETLLYYGCRRS [POR_Y564] | 0.883
34 | QTEAPYRFIFM [PTPN11_Y511_Q510P_YF] | 1.34
35 | SFPSYYTSHVQ [NEFL_Y443] | 1.85
36 | CKRQFYLYKGK [RSPO4_Y112] | 0.438
37 | MKGEFYRFLAE [YWHAG_Y131_D129E_YF] | 0.627
38 | QTWKTYVRHQQ [SFI1_Y164_Q167H] | 1.36
39 | KPGVNYYFQVS | 0.895
40 | KNRDVSSSDYF [USP24_Y2134_Y2134S] | 0.61
41 | YSIDYYRVGGH [NTRK2_Y707_T704I] | 0.494
42 | EVVGRYSVHFA [MLH1_Y183_N187Y_YF] | 0.531
43 | DRLPSYLDKVR [KRT12_Y139_A137P] | 0.494
44 | VDTFWYKLLKR [EPM2A_Y86_F88L] | 0.748
45 | PEADKYRLPYA [FGG_Y300_T303P] | 0.571
46 | LAVNPYGPPDP | 0.726
47 | CTLLPYYSARV [DGKE_Y269] | 0.735
48 | FVKEPYIQSRF [HIPK4_Y175_YF] | 0.447

Row | Sequence | phosphorylation enrichment
49 | EKKKKYMLPLD [DNM2_Y563_E560K] | 0.691
50 | SHTPSYCDEWL [RITA1_Y109_S113W] | 0.985
51 | GKPENYRRLDI [VHL_Y175_V170G] | 0.457
52 | NKYVAYIESQG [KDM4B_Y34] | 0.692
53 | VNTMLYEKFTF [TEK_Y1108_T1106M_YF] | 2.38
54 | GFILMYDITNK [RAB3C_Y110_E115K] | 1.21
55 | RHSGSYFVTSV [APC_Y2838_L2839F] | 0.741
56 | FRASFYRKGGC [ALK_Y1283_YF] | 0.663
57 | SLFQFYFQQKG [CHKB_Y381_R377L] | 0.932
58 | LWKWRYEELKE [CCDC102B_Y299_K298R] | 1.7
59 | KPRKPYTIKKP [BRD2_Y715] | 1.98
60 | GEFFRYLAEVA [YWHAG_Y133_D129E_YF] | 0.747
61 | NLMPAYHKCIQ [CYP21A2_Y190_Y191H] | 0.71
62 | GESQGYDIMEP [MSH2_Y863] | 0.605
63 | KFSNQYKATIG [RAB7A_Y37] | 0.471
64 | TDIVAYSGRVQ [SPTBN2_Y477] | 1.13

The sequences below were run against Fes (UniProt P07332) in the same assay as above.
Fes, sequence (P07332 whole entry, looked up): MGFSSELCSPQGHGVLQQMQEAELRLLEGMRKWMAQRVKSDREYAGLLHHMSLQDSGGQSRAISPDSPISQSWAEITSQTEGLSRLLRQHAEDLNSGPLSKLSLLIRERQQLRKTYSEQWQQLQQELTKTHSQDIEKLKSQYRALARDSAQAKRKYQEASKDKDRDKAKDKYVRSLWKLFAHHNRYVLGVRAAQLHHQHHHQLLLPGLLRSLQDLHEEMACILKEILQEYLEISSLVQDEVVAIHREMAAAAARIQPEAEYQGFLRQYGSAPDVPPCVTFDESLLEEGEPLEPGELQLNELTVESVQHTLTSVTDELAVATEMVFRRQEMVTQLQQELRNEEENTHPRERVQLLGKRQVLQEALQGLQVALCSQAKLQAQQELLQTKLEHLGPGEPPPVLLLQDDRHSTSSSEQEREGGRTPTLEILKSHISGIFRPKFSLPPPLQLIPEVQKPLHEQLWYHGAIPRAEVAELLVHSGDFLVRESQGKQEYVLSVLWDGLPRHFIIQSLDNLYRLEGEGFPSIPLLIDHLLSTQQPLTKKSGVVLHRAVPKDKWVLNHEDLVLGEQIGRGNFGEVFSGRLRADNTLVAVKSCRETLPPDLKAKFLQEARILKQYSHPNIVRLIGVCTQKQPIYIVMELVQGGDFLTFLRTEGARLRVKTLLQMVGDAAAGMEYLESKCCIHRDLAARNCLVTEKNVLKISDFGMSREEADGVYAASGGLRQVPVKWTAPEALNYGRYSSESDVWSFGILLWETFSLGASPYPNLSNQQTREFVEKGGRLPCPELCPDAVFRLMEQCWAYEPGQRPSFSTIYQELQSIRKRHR

Row | Sequence | phosphorylation enrichment
65 | AKFPSYEKNKK [FOXL2_Y91_F90S] | 0.7
66 | ETLLYYGCRRS [POR_Y564] | 0.897
67 | QTEAPYRFIFM [PTPN11_Y511_Q510P_YF] | 1.34
68 | SFPSYYTSHVQ [NEFL_Y443] | 0.914
69 | CKRQFYLYKGK [RSPO4_Y112] | 0.926
70 | MKGEFYRFLAE [YWHAG_Y131_D129E_YF] | 0.902
71 | QTWKTYVRHQQ [SFI1_Y164_Q167H] | 1.29
72 | KPGVNYYFQVS | 1.35
73 | KNRDVSSSDYF [USP24_Y2134_Y2134S] | 0.653
74 | YSIDYYRVGGH [NTRK2_Y707_T704I] | 0.916
75 | EVVGRYSVHFA [MLH1_Y183_N187Y_YF] | 0.978
76 | DRLPSYLDKVR [KRT12_Y139_A137P] | 0.665
77 | VDTFWYKLLKR [EPM2A_Y86_F88L] | 1.06
78 | PEADKYRLPYA [FGG_Y300_T303P] | 1
79 | LAVNPYGPPDP | 0.692
80 | CTLLPYYSARV [DGKE_Y269] | 1.04
81 | FVKEPYIQSRF [HIPK4_Y175_YF] | 0.702

Row | Sequence | phosphorylation enrichment
82 | EKKKKYMLPLD [DNM2_Y563_E560K] | 0.951
83 | SHTPSYCDEWL [RITA1_Y109_S113W] | 1.12
84 | GKPENYRRLDI [VHL_Y175_V170G] | 0.598
85 | NKYVAYIESQG [KDM4B_Y34] | 0.885
86 | VNTMLYEKFTF [TEK_Y1108_T1106M_YF] | 1.22
87 | GFILMYDITNK [RAB3C_Y110_E115K] | 2.04
88 | RHSGSYFVTSV [APC_Y2838_L2839F] | 0.845
89 | FRASFYRKGGC [ALK_Y1283_YF] | 0.902
90 | SLFQFYFQQKG [CHKB_Y381_R377L] | 1.42
91 | LWKWRYEELKE [CCDC102B_Y299_K298R] | 2.5
92 | KPRKPYTIKKP [BRD2_Y715] | 1.94
93 | GEFFRYLAEVA [YWHAG_Y133_D129E_YF] | 1.17
94 | NLMPAYHKCIQ [CYP21A2_Y190_Y191H] | 1.01
95 | GESQGYDIMEP [MSH2_Y863] | 0.94
96 | KFSNQYKATIG [RAB7A_Y37] | 0.613
97 | TDIVAYSGRVQ [SPTBN2_Y477] | 0.196

Each sequence was assayed on AncSZ in the same assay as above.

Row | Sequence | phosphorylation enrichment
98 | AKFPSYEKNKK [FOXL2_Y91_F90S] | 0.624
99 | ETLLYYGCRRS [POR_Y564] | 0.959
100 | QTEAPYRFIFM [PTPN11_Y511_Q510P_YF] | 1.34
101 | SFPSYYTSHVQ [NEFL_Y443] | 0.88
102 | CKRQFYLYKGK [RSPO4_Y112] | 0.836
103 | MKGEFYRFLAE [YWHAG_Y131_D129E_YF] | 0.77
104 | QTWKTYVRHQQ [SFI1_Y164_Q167H] | 0.901
105 | KPGVNYYFQVS | 1.22
106 | KNRDVSSSDYF [USP24_Y2134_Y2134S] | 0.921
107 | YSIDYYRVGGH [NTRK2_Y707_T704I] | 1.65
108 | EVVGRYSVHFA [MLH1_Y183_N187Y_YF] | 0.92
109 | DRLPSYLDKVR [KRT12_Y139_A137P] | 0.62
110 | VDTFWYKLLKR [EPM2A_Y86_F88L] | 0.971
111 | PEADKYRLPYA [FGG_Y300_T303P] | 0.763
112 | LAVNPYGPPDP | 0.796
113 | CTLLPYYSARV [DGKE_Y269] | 1.03
114 | FVKEPYIQSRF [HIPK4_Y175_YF] | 0.569

Row | Sequence | phosphorylation enrichment
115 | EKKKKYMLPLD [DNM2_Y563_E560K] | 0.594
116 | SHTPSYCDEWL [RITA1_Y109_S113W] | 1.17
117 | GKPENYRRLDI [VHL_Y175_V170G] | 0.452
118 | NKYVAYIESQG [KDM4B_Y34] | 0.893
119 | VNTMLYEKFTF [TEK_Y1108_T1106M_YF] | 1.29
120 | GFILMYDITNK [RAB3C_Y110_E115K] | 1.59
121 | RHSGSYFVTSV [APC_Y2838_L2839F] | 0.895
122 | FRASFYRKGGC [ALK_Y1283_YF] | 0.866
123 | SLFQFYFQQKG [CHKB_Y381_R377L] | 1.35
124 | LWKWRYEELKE [CCDC102B_Y299_K298R] | 1.34
125 | KPRKPYTIKKP [BRD2_Y715] | 1.28
126 | GEFFRYLAEVA [YWHAG_Y133_D129E_YF] | 0.873
127 | NLMPAYHKCIQ [CYP21A2_Y190_Y191H] | 0.91
128 | GESQGYDIMEP [MSH2_Y863] | 1.14
129 | KFSNQYKATIG [RAB7A_Y37] | 0.528
130 | TDIVAYSGRVQ [SPTBN2_Y477] | 0.857

Each sequence was assayed against Hck (UniProt P08631) in the same assay as above.
Hck, sequence (P08631 whole entry, looked up): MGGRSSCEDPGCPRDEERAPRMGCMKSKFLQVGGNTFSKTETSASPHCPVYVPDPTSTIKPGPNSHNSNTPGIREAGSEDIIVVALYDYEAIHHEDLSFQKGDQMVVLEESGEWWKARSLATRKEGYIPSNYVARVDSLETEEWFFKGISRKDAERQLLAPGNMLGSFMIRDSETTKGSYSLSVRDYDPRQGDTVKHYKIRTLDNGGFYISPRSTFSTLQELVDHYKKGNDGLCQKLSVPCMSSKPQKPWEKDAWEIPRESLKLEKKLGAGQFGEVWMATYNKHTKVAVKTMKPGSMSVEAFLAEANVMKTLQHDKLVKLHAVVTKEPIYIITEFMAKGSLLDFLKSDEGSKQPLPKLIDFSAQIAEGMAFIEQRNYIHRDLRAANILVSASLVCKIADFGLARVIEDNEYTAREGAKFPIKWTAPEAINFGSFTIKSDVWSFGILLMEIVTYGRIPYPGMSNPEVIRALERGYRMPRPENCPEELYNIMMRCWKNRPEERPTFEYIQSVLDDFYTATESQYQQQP

Row | Sequence | phosphorylation enrichment
131 | AKFPSYEKNKK [FOXL2_Y91_F90S] | 0.44
